T1: IL13Rα2 expressed on tumor cells (U87, U373, U251) (UniProt Q14627 27-380, limits assumed)
T1 sequence (looked up): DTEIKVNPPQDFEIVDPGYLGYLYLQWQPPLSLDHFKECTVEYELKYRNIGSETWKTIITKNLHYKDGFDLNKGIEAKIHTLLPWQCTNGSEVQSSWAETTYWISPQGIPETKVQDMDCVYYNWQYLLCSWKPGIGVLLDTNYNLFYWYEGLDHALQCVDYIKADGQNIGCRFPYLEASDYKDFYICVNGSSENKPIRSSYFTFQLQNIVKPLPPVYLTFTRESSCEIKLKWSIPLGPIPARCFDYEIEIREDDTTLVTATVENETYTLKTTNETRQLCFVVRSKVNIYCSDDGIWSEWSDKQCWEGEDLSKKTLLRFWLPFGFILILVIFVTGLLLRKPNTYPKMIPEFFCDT

T2: recombinant IL13Rα2 (Sino biological) (UniProt Q14627 27-343, limits assumed)
T2 construct: Bought protein; construct not described
T2 sequence (looked up): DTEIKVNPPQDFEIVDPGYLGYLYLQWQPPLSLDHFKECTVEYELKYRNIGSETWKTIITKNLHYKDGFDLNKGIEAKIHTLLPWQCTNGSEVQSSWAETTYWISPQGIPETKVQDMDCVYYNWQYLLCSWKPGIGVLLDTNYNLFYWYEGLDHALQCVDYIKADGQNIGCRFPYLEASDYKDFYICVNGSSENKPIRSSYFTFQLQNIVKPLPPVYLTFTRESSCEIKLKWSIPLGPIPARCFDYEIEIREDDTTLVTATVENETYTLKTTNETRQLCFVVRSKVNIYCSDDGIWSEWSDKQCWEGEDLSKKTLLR

T3: recombinant IL13Rα1 (Sino biological) (UniProt P78552 22-343, limits assumed)
T3 construct: Bought protein; construct not described
T3 sequence (looked up): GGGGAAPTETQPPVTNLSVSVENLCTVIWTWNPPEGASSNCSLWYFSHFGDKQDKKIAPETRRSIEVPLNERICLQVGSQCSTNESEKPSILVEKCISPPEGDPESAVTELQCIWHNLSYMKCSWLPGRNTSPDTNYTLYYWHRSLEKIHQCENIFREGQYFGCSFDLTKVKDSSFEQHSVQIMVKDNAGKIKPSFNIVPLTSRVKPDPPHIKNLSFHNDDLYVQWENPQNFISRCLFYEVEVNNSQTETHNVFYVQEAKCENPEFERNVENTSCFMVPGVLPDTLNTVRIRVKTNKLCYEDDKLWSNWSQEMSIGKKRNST

T4: IL13Rα1 expressed on tumor cells (UniProt P78552 22-427, limits assumed)
T4 construct: whole, on cells
T4 sequence (looked up): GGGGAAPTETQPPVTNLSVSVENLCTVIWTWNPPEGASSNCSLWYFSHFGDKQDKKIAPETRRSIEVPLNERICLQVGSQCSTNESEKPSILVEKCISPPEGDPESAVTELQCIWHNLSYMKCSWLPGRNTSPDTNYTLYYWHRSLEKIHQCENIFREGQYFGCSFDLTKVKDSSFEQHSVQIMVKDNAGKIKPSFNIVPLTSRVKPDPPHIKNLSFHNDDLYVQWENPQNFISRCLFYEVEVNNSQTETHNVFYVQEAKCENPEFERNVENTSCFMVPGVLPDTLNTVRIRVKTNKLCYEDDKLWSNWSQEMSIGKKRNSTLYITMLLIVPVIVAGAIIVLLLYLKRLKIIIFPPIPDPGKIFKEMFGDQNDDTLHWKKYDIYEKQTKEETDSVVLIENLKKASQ

T5: recombinant CD3 protein (Acrobiosystems) (UniProt P07766 23-126)
T5 chain: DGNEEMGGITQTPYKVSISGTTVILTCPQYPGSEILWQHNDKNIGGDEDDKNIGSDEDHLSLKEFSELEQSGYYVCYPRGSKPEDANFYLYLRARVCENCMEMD

T6: recombinant IL13Rα2 (Sino biological) (UniProt Q14627 27-343)
T6 chain: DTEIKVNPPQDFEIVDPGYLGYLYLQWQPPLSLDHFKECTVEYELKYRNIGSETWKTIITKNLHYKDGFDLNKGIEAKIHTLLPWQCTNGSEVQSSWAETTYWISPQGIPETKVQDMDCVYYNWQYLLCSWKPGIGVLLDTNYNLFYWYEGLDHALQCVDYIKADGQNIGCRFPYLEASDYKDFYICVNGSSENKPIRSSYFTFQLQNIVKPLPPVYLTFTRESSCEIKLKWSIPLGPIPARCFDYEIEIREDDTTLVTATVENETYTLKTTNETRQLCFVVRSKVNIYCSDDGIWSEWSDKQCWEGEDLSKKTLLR


Key:
[1] = target: T1, IL13Rα2 expressed on tumor cells (U87, …); test: cell-based or functional assay
[2] = target: T2, recombinant IL13Rα2 (Sino biological); test: binding ELISA, recombinant purified BTE on coated recombinant IL13Rα2
Procedure: (§1) ELISA plates were coated with either IL13Rα2/IL13Rα1 (Sino biological, […]) or CD3 (Acrobiosystems, 1 μg/ml) overnight at 4C. Blocking was performed with PBST-10% FBS for 1 hour. As primary antibody, supernatants from Expi293F cells transfected with dBTEs was used or pVax as negative control at different dilutions. The cells were incubated at room temperature for 1 hour. Secondary antibody was a goat anti-human fab fragment specific HRP conjugated (Jackson immunoresearch). After 1 hour incubation the blots were developed with TMB solution and read OD at 450 nm. To determine binding kinetics, recombinant BTEs were used at indicated concentrations as primary antibody, and HRP conjugated anti-His tag antibody (Biolegend) or goat anti-mouse fab fragment specific antibody as secondary antibody.

[3] = target: T3, recombinant IL13Rα1 (Sino biological); test: binding ELISA, plate coated with IL13Rα1, Expi293F supernatant
Procedure: as §1

[4] = target: T4, IL13Rα1 expressed on tumor cells; test: binding to tumor cells (method not given)
[5] = target: T5, recombinant CD3 protein (Acrobiosystems); test: ELISA
[6] = target: T6, recombinant IL13Rα2 (Sino biological); test: ELISA

Binder	EC50 of killing of U87-GFP-Luc cells, 48h luciferase killing assay with recombinant BTE and primary human T cells [1] [ng/mL]	IC50 [2] [ng/mL]	binding result [3]	binding result [4]	IC50 [5] [ng/mL]	IC50 [6] [ng/mL]
PB01-forward (bispecific antibody, Single-chain bispecific T cell engager, VL-VH-VH-VL format: humanized anti-IL13Rα2 scFv fused by GS linker to a modified UCHT1 anti-CD3 scFv; Tested as Expi293F transfection supernatant and as a recombinant purified version, detected with anti-His tag antibody; also called PB07-2134) DIQMTQSPSSLSASVGDRVTITCTASLSVSSTYLHWYQQKPGSSPKLWIYSTSNLASGVPSRFSGSGSGTSYTLTISSLQPEDFATYYCHQYHRSPLTFGGGTKVEIKGGGGSGGGGSGGGGSEVQLVESGGGLVQPGGSLRLSCAASGFSLTKYGVHWVRQAPGKGLEWVGVKWAGGSTDYNSALMSRFTISKDNAKNSLYLQMNSLRAEDTAVYYCARDHRDAMDYWGQGTLVTVSSGGGGSEVQLVESGGGLVQPGGSLRLSCAASGYSFTGYTMNWVRQAPGKGLEWVALINPYKGVSTYNQKFKDRFTISVDKSKNTAYLQMNSLRAEDTAVYYCARSGYYGDSDWYFDVWGQGTLVTVSSGGGGSGGGGSGGGGSDIQMTQSPSSLSASVGDRVTITCRASQDIRNYLNWYQQKPGKAPKLLIYYTSRLESGVPSRFSGSGSGTDYTLTISSLQPEDFATYYCQQGNTLPWTFGQGTKVEIKS	~0.1	21.2				
PB02-forward (bispecific antibody, Single-chain bispecific T cell engager, VL-VH-VH-VL format: second humanized anti-IL13Rα2 clone fused by GS linker to a modified UCHT1 anti-CD3 scFv; Tested as Expi293F supernatant and as a recombinant purified version; also called PB08-2134) DIQMTQSPSSLSASVGDRVTITCKASQDVGTAVAWYQQKPGKAPKLLIYSASYRSTGVPSRFSGSGSGTDFTLTISSLQPEDFATYYCQHHYSAPWTFGGGTKVEIKGGGGSGGGGSGGGGSEVQLVESGGGLVQPGGSLRLSCAASGFTFSRNGMSWVRQAPGKGLEWVATVSSGGSYIYYADSVKGRFTISRDNAKNSLYLQMNSLRAEDTAVYYCARQGTTALATRFFDVWGQGTLVTVSSGGGGSEVQLVESGGGLVQPGGSLRLSCAASGYSFTGYTMNWVRQAPGKGLEWVALINPYKGVSTYNQKFKDRFTISVDKSKNTAYLQMNSLRAEDTAVYYCARSGYYGDSDWYFDVWGQGTLVTVSSGGGGSGGGGSGGGGSDIQMTQSPSSLSASVGDRVTITCRASQDIRNYLNWYQQKPGKAPKLLIYYTSRLESGVPSRFSGSGSGTDYTLTISSLQPEDFATYYCQQGNTLPWTFGQGTKVEIKS	~0.1	4.2	no binding	no binding	11.2	
PB01-reverse (bispecific antibody) EVQLVESGGGLVQPGGSLRLSCAASGFSLTKYGVHWVRQAPGKGLEWVGVKWAGGSTDYNSALMSRFTISKDNAKNSLYLQMNSLRAEDTAVYYCARDHRDAMDYWGQGTLVTVSSGGGGSGGGGSGGGGSDIQMTQSPSSLSASVGDRVTITCTASLSVSSTYLHWYQQKPGSSPKLWIYSTSNLASGVPSRFSGSGSGTSYTLTISSLQPEDFATYYCHQYHRSPLTFGGGTKVEIKGGGGSDIQMTQSPSSLSASVGDRVTITCRASQDIRNYLNWYQQKPGKAPKLLIYYTSRLESGVPSRFSGSGSGTDYTLTISSLQPEDFATYYCQQGNTLPWTFGQGTKVEIKSGGGGSGGGGSGGGGSEVQLVESGGGLVQPGGSLRLSCAASGYSFTGYTMNWVRQAPGKGLEWVALINPYKGVSTYNQKFKDRFTISVDKSKNTAYLQMNSLRAEDTAVYYCARSGYYGDSDWYFDVWGQGTLVTVSS	~0.1					
PB02-reverse (bispecific antibody, Single-chain bispecific T cell engager, VH-VL-VL-VH format: second humanized anti-IL13Rα2 clone fused by GS linker to a modified UCHT1 anti-CD3 scFv; Tested as Expi293F supernatant and as a recombinant purified version; also called PB08-1243) EVQLVESGGGLVQPGGSLRLSCAASGFTFSRNGMSWVRQAPGKGLEWVATVSSGGSYIYYADSVKGRFTISRDNAKNSLYLQMNSLRAEDTAVYYCARQGTTALATRFFDVWGQGTLVTVSSGGGGSGGGGSGGGGSDIQMTQSPSSLSASVGDRVTITCKASQDVGTAVAWYQQKPGKAPKLLIYSASYRSTGVPSRFSGSGSGTDFTLTISSLQPEDFATYYCQHHYSAPWTFGGGTKVEIKGGGGSDIQMTQSPSSLSASVGDRVTITCRASQDIRNYLNWYQQKPGKAPKLLIYYTSRLESGVPSRFSGSGSGTDYTLTISSLQPEDFATYYCQQGNTLPWTFGQGTKVEIKSGGGGSGGGGSGGGGSEVQLVESGGGLVQPGGSLRLSCAASGYSFTGYTMNWVRQAPGKGLEWVALINPYKGVSTYNQKFKDRFTISVDKSKNTAYLQMNSLRAEDTAVYYCARSGYYGDSDWYFDVWGQGTLVTVSS	~0.1		no binding	no binding	0.41	9.3

From patent publication US20240158521A1 (WISTAR INSTITUTE OF ANATOMY AND BIOLOGY, published 2024)
